The source of these data is publication PMC7815066 (Chem, 2021).

Data set [1] deals with E. coli bo3 oxidase (E. coli). The data set is described as follows: mass photometry.
In data set [2] the target is E. coli bo3 oxidase (E. coli). The data set is described as follows: SEC-MALS. A general note: SEC sorts molecules by how far they enter the pores of the column.
The data set “mass photometry” concerns the molecule itself. As to the kind of experiment: mass photometry.
Data set [3] deals with T1, Streptomyces lividans potassium channel KcsA (Streptomyces lividans), P0A334.
T1 chain: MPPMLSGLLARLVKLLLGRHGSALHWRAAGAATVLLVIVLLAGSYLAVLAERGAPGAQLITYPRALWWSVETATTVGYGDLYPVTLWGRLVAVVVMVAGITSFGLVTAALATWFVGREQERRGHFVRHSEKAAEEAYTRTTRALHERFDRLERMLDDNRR
As to the kind of experiment: mass photometry. The settings on record: remark: other sources report otherwise.

In data set [4] the target is T1, Streptomyces lividans potassium channel …. The data set is described as follows: mass photometry. The settings on record: remark: other sources report otherwise.

Consider E. coli bo3 oxidase (complex), for which, in data set [1], the relative abundance of dimers was 20% and the stoichiometry N was 2. Further, in data set [2], the relative abundance of dimers worked out at 28%, the relative abundance of monomers was 72% and the stoichiometry N was 2.

B1: E. coli outer membrane protein F (natural protein)
chain: AEIYNKDGNKVDLYGKAVGLHYFSKGNGENSYGGNGDMTYARLGFKGETQINSDLTGYGQWEYNFQGNNSEGADAQTGNKTRLAFAGLKYADVGSFDYGRNYGVVYDALGYTDMLPEFGGDTAYSDDFFVGRVGGVATYRNSNFFGLVDGLNFAVQYLGKNERDTARRSNGDGVGGSISYEYEGFGIVGAYGAADRTNLQEAQPLGNGKKAEQWATGLKYDANNIYLAANYGETRNATPITNKFTNTSGFANKTQDVLLVAQYQFDFGLRPSIAYTKSKAKDVEGIGDVDLVNYFEVGATYYFNKNMSTYVDYIINQIDSDNKLGVGSDDTVAVGIVYQF
In the case of B1, in the data set “mass photometry”, the “stoichiometry N” value was 3.

B2: Streptomyces lividans potassium channel KcsA, P0A334 1-160 (natural protein)
chain: T1 chain
Regarding B2, the stoichiometry N in data set [3] and in data set [4] was 4 each time.

Broadly, the stoichiometry N is the number of molecules, sites or subunits per partner or assembly.
